Tests used:
[1] = target: cell surface IFNAR1/IFNAR2 heterodimer (RAW-Lucia ISG cells) (Mus musculus (Mouse)) (UniProt P33896)
human R2-SUB (human) = human R2-SUB (human) (UniProt P01563)
IFNa4-Fc = IFNa4-Fc (human); test: cell-based or functional assay

Molecule | IFN activity, luciferase reporter assay in RAW-Lucia ISG cells [1] | IFN activity, luciferase reporter assay in RAW-Lucia ISG cells (IFNa4-Fc) | also measured
R1-IFNa4-Fc (from UniProt P07351) (Fc fusion) | < 125 fold | – | –
R2-IFNa4-Fc (from UniProt P07351) (Fc fusion) | > 125 fold | – | –
rmMMP-9 (from UniProt P41245) (enzyme) | – | – | cleavage by rmMMP-9 at 37 C for 0, 0.5, 2 or 6 hours, digests separated on a stain-free gel (human R2-SUB (human)): 100%
Mouse IFNAR2-ECD (receptor) SLETITPSAFDGYPDEPCTINITIRNSRLILSWELENKSGPPANYTLWYTVMSKDENLTKVKNCSDTTKSSCDVTDKWLEGMESYVVAIVIVHRGDLTVCRCSDYIVPANAPLEPPEFEIVGFTDHINVTMEFPPVTSKIIQEKMKTTPFVIKEQIGDSVRKKHEPKVNNVTGNFTFVLRDLLPKTNYCVSLYFDDDPAIKSPLKCIVLQPGQESGLSESA | – | ≥ 125 fold | –
Mouse IFNAR1-ECD (receptor) ENLKPPENIDVYIIDDNYTLKWSSHGESMGSVTFSAEYRTKDEAKWLKVPECQHTTTTKCEFSLLDTNVYIKTQFRVRAEEGNSTSSWNEVDPFIPFYTAHMSPPEVRLEAEDKAILVHISPPGQDGNMWALEKPSFSYTIRIWQKSSSDKKTINSTYYVEKIPELLPETTYCLEVKAIHPSLKKHSNYSTVQCISTTVANKMPVPGNLQVDAQGKSYVLKWDYIASADVLFRAQWLPGYSKSSSGSRSDKWKPIPTCANVQTTHCVFSQDTVYTGTFFLHVQASEGNHTSFWSEEKFIDSQKHILPPPPVITVTAMSDTLLVYVNCQDSTCDGLNYEIIFWENTSNTKISMEKDGPEFTLKNLQPLTVYCVQARVLFRALLNKTSNFSEKLCEKTRPGSFST | – | ≥ 125 fold | –
